# Values joined by “and” are separate entries in the source; they are usually repeats but may differ in a detail not shown here. Equal entries are not always repeated.
# Key:
# [1] = target: recombinant Fasciola hepatica cytosolic Cu/Zn superoxide dismutase (rFhSOD1) (Fasciola hepatica); experiment: SEC; Superdex 75 10/300 GL column, 400 uL/min, eluted into 1x PBS; standards conalbumin (76 kDa), carbonic anhydrase (29 kDa), aprotinin (6.5 kDa)
# [2] = target: recombinant Fasciola hepatica extracellular Cu/Zn superoxide dismutase (rFhSOD3), signal peptide removed (Fasciola hepatica); experiment: as above
Substance,stoichiometry N [1],stoichiometry N [2]
recombinant Fasciola hepatica cytosolic Cu/Zn superoxide dismutase (rFhSOD1) (enzyme),2,
"recombinant Fasciola hepatica extracellular Cu/Zn superoxide dismutase (rFhSOD3), signal peptide removed (enzyme)",,2 and 4

# Reference: paper PMC9598480
